Assay: biochemical tests of B12 binding
Details: purified recombinant transcobalamin expressed in A. oryzae
Source text: The entire process was scalable to produce the protein in large batches. Afterwards, the inventors feedbacked the expression information (RNAseq) to the machine learning to create better constructs until reaching optimal transcobalamin expression.

B12 binding: effective B12 binding
B1: transcobalamin: recombinant bovine transcobalamin secreted from A. oryzae and purified from the harvested medium; TC2 expression confirmed (protein, UniProt Q9XSC9 19-432, looked up)
Transcobalamin-2: NICEITEVDSTLVERLGQRLLPWMDRLSQEQLNPSIYVGLRLSSLQAGAKEAHYLHSLKLSYQQSLLRPASNKDDNDSEAKPSMGQLALYLLALRANCEFIGGRKGDRLVSQLKRFLEDEKRAIGHNHQGHPRTSYYQYSLGILALCVHQKRVHDSVVGKLLYAVEHKPHLLQDHVSVDTMAMAGMAFSCLELSNLNPKQRNRINLALKRVQEKILKAQTPEGYFGNVYSTPLALQLLMGSLRPSVELGTACLKAKAALQASLQHKTFQNPLMISQLLPVLNQKSYVDLISPDCQAPRALLEPALETPPQAKVPKFIDVLLKVSGISPSYRHSVSVPAGSSLEDILKNAQEHGRFRFRTQASLSGPFLTSVLGRKAGEREFWQVLRDPDTPLQQGIADYRPKDGETIELRLVGW

From US20240407381A1, “FOOD COMPOSITIONS COMPRISING RECOMBINANT CELLS COMPRISING TRANSCOBALAMIN” (IMAGINDAIRY LTD., priority 2021, published 2024)
